Results published in PMC10397247.

Assays:
P2-AA-1HGe-M = molecular target: T1, P2-AA-1HGe-M; assay: two-hybrid library CCmax; conditions: mean of both orientations;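 also: natural log of median RNA to DNA barcode read ratio; higher means stronger binding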
T1 chain: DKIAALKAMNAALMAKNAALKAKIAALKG

P2-AA-1HGe-D = molecular target: T2, P2-AA-1HGe-D; assay: two-hybrid library CCmax; conditions: mean of both orientations;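 also: natural log of median RNA to DNA barcode read ratio; higher means stronger binding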
T2 chain: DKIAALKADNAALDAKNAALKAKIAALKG

P2-AA = molecular target: T3, P2-AA; assay: two-hybrid library CCmax; conditions: mean of both orientations;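 also: natural log of median RNA to DNA barcode read ratio; higher means stronger binding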
T3 chain: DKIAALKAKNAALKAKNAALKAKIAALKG

P2-AA-1HGe-T = molecular target: T4, P2-AA-1HGe-T; assay: two-hybrid library CCmax; conditions: mean of both orientations;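 also: natural log of median RNA to DNA barcode read ratio; higher means stronger binding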
T4 chain: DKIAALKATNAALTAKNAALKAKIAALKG

P2-AA-1HGe-Q = molecular target: T5, P2-AA-1HGe-Q; assay: two-hybrid library CCmax; conditions: mean of both orientations;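 also: natural log of median RNA to DNA barcode read ratio; higher means stronger binding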
T5 chain: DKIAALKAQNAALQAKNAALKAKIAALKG

P2-AA-1HGe-A = molecular target: T6, P2-AA-1HGe-A; assay: two-hybrid library CCmax; conditions: mean of both orientations;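 also: natural log of median RNA to DNA barcode read ratio; higher means stronger binding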
T6 chain: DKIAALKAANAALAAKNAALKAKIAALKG

4H3162-AA = molecular target: T7, 4H3162-AA; assay: two-hybrid library CCmax; conditions: mean of both orientations
T7 chain: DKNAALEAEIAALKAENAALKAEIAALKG

4H697-AA = molecular target: T8, 4H697-AA; assay: two-hybrid library CCmax; conditions: mean of both orientations
T8 chain: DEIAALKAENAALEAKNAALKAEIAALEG

4H3056-AA = molecular target: T9, 4H3056-AA; assay: two-hybrid library CCmax; conditions: mean of both orientations
T9 chain: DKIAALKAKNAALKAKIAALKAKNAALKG

4H2611-AA = molecular target: T10, 4H2611-AA; assay: two-hybrid library CCmax; conditions: mean of both orientations
T10 chain: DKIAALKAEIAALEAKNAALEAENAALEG

4H3631-AA = molecular target: T11, 4H3631-AA; assay: two-hybrid library CCmax; conditions: mean of both orientations
T11 chain: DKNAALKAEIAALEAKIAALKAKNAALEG

4H2553-AA = molecular target: T12, 4H2553-AA; assay: two-hybrid library CCmax; conditions: mean of both orientations
T12 chain: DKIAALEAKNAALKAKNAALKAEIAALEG

4H3865-AA = molecular target: T13, 4H3865-AA; assay: two-hybrid library CCmax; conditions: mean of both orientations
T13 chain: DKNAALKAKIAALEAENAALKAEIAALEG

4H3133-AA = molecular target: T14, 4H3133-AA; assay: two-hybrid library CCmax; conditions: mean of both orientations
T14 chain: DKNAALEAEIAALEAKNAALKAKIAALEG

4H3378-AA = molecular target: T15, 4H3378-AA; assay: two-hybrid library CCmax; conditions: mean of both orientations
T15 chain: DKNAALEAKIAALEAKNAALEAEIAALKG

4H3413-AA = molecular target: T16, 4H3413-AA; assay: two-hybrid library CCmax; conditions: mean of both orientations
T16 chain: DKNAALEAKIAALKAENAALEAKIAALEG

4H1874-AA = molecular target: T17, 4H1874-AA; assay: two-hybrid library CCmax
T17 chain: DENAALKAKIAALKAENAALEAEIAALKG

4H2907-AA = molecular target: T18, 4H2907-AA; assay: two-hybrid library CCmax; conditions: mean of both orientations
T18 chain: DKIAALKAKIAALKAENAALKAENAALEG

4H2198-AA = molecular target: T19, 4H2198-AA; assay: two-hybrid library CCmax; conditions: mean of both orientations
T19 chain: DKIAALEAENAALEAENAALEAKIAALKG

4H982-AA = molecular target: T20, 4H982-AA; assay: two-hybrid library CCmax; conditions: mean of both orientations
T20 chain: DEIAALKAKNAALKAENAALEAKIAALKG

4H2620-AA = molecular target: T21, 4H2620-AA; assay: two-hybrid library CCmax; conditions: mean of both orientations
T21 chain: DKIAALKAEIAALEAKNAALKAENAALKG

4H384-AA = molecular target: T22, 4H384-AA; assay: two-hybrid library CCmax; conditions: mean of both orientations
T22 chain: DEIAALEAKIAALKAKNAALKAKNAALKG

4H340-AA = molecular target: T23, 4H340-AA; assay: two-hybrid library CCmax; conditions: mean of both orientations
T23 chain: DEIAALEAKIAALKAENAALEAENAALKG

4H32-AA = molecular target: T24, 4H32-AA; assay: two-hybrid library CCmax; conditions: mean of both orientations
T24 chain: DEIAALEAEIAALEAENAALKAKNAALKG

4H2648-AA = molecular target: T25, 4H2648-AA; assay: two-hybrid library CCmax; conditions: mean of both orientations
T25 chain: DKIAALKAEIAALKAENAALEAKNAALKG

4H3588-AA = molecular target: T26, 4H3588-AA; assay: two-hybrid library CCmax; conditions: mean of both orientations
T26 chain: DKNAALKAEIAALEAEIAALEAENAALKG

4H3718-AA = molecular target: T27, 4H3718-AA; assay: two-hybrid library CCmax; conditions: mean of both orientations
T27 chain: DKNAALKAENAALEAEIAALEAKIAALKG

4H3697-AA = molecular target: T28, 4H3697-AA; assay: two-hybrid library CCmax; conditions: mean of both orientations
T28 chain: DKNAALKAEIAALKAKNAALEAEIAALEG

4H3606-AA = molecular target: T29, 4H3606-AA; assay: two-hybrid library CCmax; conditions: mean of both orientations
T29 chain: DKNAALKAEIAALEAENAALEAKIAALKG

4H949-bA = molecular target: T30, 4H949-bA; assay: two-hybrid library CCNG1
T30 chain: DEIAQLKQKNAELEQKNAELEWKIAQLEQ

4H349-bA = molecular target: T31, 4H349-bA; assay: two-hybrid library CCNG1
T31 chain: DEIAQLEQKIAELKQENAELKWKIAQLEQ

4H3297-bA = molecular target: T32, 4H3297-bA; assay: two-hybrid library CCNG1
T32 chain: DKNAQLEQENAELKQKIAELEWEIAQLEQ

4H3041-bA = molecular target: T33, 4H3041-bA; assay: two-hybrid library CCNG1
T33 chain: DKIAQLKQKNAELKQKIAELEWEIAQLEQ

4H56-bA = molecular target: T34, 4H56-bA; assay: two-hybrid library CCNG1
T34 chain: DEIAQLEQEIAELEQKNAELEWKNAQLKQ

4H796-bA = molecular target: T35, 4H796-bA; assay: two-hybrid library CCNG1
T35 chain: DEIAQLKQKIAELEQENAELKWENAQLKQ

4H3381-bA = molecular target: T36, 4H3381-bA; assay: two-hybrid library CCNG1
T36 chain: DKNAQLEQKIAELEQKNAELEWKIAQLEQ

4H3364-bA = molecular target: T37, 4H3364-bA; assay: two-hybrid library CCNG1
T37 chain: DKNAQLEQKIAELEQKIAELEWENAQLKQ

4H2859-bA = molecular target: T38, 4H2859-bA; assay: two-hybrid library CCNG1
T38 chain: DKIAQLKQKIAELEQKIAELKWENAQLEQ

4H2931-bA = molecular target: T39, 4H2931-bA; assay: two-hybrid library CCNG1
T39 chain: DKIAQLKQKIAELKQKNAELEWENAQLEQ

4H932-bA = molecular target: T40, 4H932-bA; assay: two-hybrid library CCNG1
T40 chain: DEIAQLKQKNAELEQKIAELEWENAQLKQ

4H730-bA = molecular target: T41, 4H730-bA; assay: two-hybrid library CCNG1
T41 chain: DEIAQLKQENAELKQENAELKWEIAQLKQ

DEIAALEADNAALDAENAALEAEIAALEG [P1-AA-1HGe-D]
interaction score (P2-AA-1HGe-M): 1.74 | interaction score (P2-AA-1HGe-D): 0.303 | interaction score (P2-AA): 1.91 | interaction score (P2-AA-1HGe-T): 1.92 | interaction score (P2-AA-1HGe-Q): 2.03 | interaction score (P2-AA-1HGe-A): 1.58

DEIAALEARNAALRAENAALEAEIAALEG [P1-AA-1HGe-R]
interaction score (P2-AA-1HGe-M): 1.7 | interaction score (P2-AA-1HGe-D): 1.67 | interaction score (P2-AA): 1.49 | interaction score (P2-AA-1HGe-T): 2.2 | interaction score (P2-AA-1HGe-Q): 2.26 | interaction score (P2-AA-1HGe-A): 1.97

DENAALKAKIAALKAENAALEAEIAALKG [4H1874-AA]
interaction score (4H3162-AA): 1.38 | interaction score (4H697-AA): 1.47 | interaction score (4H3056-AA): -0.229 | interaction score (4H2611-AA): -1.33 | interaction score (4H3631-AA): -1.14 | interaction score (4H2553-AA): -1.21 | interaction score (4H3865-AA): 1.13 | interaction score (4H3133-AA): 1.46 | interaction score (4H3378-AA): -0.221 | interaction score (4H3413-AA): -1.35 | interaction score (4H1874-AA): 1.18 | interaction score (4H2907-AA): -1.61 | interaction score (4H2198-AA): -1.15 | interaction score (4H982-AA): -1.36 | interaction score (4H2620-AA): 1.59 | interaction score (4H384-AA): -0.973 | interaction score (4H340-AA): -1.94 | interaction score (4H32-AA): 1.23 | interaction score (4H2648-AA): -1.44 | interaction score (4H3588-AA): -1.22 | interaction score (4H3718-AA): -1.5 | interaction score (4H3697-AA): -0.269 | interaction score (4H3606-AA): 2.08

DKIAQLKQKIAELEQKIAELKWENAQLEQ [4H2859-bA]
interaction score (4H949-bA): -1.6 | interaction score (4H349-bA): -1.25 | interaction score (4H3297-bA): -0.389 | interaction score (4H3041-bA): 0.532 | interaction score (4H56-bA): 0.529 | interaction score (4H796-bA): -0.855 | interaction score (4H3381-bA): -1.02 | interaction score (4H3364-bA): 0.621 | interaction score (4H2859-bA): 0.951 | interaction score (4H2931-bA): -0.145 | interaction score (4H932-bA): -0.912 | interaction score (4H730-bA): -1.15
